Data taken from patent publication US20140274782A1, “AFFINITY REAGENTS AND METHODS FOR DETECTION, PURIFICATION, AND PROTEOMIC ANALYSIS OF METHYLATED PROTEINS” (The Board of Trustees of the Leland Stanford Junior …, priority 2013, published 2014).

T1: G9a and GLP (Homo sapiens, UniProt Q96KQ7+Q9H9B1)
T1 sequence (Q96KQ7 2-1210 limits assumed): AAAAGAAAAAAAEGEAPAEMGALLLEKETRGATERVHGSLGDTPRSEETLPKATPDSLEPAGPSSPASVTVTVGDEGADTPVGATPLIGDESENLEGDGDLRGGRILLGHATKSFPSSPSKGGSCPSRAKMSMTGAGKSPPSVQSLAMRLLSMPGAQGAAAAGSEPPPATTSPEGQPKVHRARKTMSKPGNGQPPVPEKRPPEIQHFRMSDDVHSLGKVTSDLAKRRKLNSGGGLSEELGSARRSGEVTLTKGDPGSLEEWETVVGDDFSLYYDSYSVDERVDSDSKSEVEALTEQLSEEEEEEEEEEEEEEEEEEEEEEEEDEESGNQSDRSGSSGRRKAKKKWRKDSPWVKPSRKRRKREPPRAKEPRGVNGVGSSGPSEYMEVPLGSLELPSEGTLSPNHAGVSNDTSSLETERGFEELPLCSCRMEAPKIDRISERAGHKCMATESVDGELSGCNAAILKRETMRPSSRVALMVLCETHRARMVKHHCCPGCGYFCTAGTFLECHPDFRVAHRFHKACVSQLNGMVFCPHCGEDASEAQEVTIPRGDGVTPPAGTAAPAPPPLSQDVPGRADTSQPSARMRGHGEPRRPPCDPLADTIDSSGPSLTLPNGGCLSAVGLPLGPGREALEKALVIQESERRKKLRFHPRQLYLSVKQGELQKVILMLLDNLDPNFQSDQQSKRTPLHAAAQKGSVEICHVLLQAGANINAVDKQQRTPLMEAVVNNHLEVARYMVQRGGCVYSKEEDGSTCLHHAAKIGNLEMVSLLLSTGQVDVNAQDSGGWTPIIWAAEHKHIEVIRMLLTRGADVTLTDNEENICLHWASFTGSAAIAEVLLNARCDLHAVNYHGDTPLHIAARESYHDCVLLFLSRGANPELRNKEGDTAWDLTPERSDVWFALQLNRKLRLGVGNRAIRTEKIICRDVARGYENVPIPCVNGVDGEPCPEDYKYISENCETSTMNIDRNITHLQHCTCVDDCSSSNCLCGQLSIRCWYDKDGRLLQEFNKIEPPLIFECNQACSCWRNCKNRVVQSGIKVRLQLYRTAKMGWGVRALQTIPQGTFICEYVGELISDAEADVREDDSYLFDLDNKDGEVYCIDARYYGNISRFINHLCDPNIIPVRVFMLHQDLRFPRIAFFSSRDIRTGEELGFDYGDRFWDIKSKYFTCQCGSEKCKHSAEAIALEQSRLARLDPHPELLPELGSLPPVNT
T1 sequence (Q9H9B1 2-1298 limits assumed): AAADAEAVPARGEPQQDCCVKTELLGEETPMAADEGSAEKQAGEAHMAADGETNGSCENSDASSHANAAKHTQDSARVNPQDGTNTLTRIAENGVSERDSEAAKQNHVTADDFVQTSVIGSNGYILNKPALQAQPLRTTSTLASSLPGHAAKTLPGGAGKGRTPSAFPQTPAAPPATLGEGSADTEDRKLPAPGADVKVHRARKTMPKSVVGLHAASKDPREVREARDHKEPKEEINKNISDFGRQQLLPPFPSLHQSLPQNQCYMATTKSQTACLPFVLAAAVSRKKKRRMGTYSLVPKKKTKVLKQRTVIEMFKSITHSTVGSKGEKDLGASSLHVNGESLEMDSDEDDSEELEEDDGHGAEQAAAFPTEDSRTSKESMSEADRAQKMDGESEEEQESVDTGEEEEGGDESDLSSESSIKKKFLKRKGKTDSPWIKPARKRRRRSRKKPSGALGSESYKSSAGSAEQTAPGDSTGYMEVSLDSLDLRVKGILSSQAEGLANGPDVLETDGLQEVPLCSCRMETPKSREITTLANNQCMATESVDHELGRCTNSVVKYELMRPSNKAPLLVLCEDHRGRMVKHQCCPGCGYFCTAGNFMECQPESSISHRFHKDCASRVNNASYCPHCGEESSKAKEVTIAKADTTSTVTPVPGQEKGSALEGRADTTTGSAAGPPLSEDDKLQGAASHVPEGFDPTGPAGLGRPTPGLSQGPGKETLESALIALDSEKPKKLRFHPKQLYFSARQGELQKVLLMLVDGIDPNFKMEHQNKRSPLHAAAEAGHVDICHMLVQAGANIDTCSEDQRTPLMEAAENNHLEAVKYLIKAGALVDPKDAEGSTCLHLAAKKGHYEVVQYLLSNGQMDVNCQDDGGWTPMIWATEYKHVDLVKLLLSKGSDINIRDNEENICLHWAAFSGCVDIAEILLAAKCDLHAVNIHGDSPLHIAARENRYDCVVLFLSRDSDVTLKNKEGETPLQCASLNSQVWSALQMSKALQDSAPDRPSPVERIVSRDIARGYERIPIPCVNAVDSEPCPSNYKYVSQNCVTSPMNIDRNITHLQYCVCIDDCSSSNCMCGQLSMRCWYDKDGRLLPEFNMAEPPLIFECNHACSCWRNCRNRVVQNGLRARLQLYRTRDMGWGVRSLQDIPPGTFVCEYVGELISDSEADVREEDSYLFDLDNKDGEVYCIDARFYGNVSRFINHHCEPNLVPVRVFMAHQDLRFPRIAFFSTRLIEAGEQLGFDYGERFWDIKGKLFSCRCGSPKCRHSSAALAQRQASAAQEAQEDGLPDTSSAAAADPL

B1: TRIM28 (protein, UniProt Q13263 2-835, looked up)
Transcription intermediary …: AASAAAASAAAASAASGSPGPGEGSAGGEKRSTAPSAAASASASAAASSPAGGGAEALELLEHCGVCRERLRPEREPRLLPCLHSACSACLGPAAPAAANSSGDGGAAGDGTVVDCPVCKQQCFSKDIVENYFMRDSGSKAATDAQDANQCCTSCEDNAPATSYCVECSEPLCETCVEAHQRVKYTKDHTVRSTGPAKSRDGERTVYCNVHKHEPLVLFCESCDTLTCRDCQLNAHKDHQYQFLEDAVRNQRKLLASLVKRLGDKHATLQKSTKEVRSSIRQVSDVQKRVQVDVKMAILQIMKELNKRGRVLVNDAQKVTEGQQERLERQHWTMTKIQKHQEHILRFASWALESDNNTALLLSKKLIYFQLHRALKMIVDPVEPHGEMKFQWDLNAWTKSAEAFGKIVAERPGTNSTGPAPMAPPRAPGPLSKQGSGSSQPMEVQEGYGFGSGDDPYSSAEPHVSGVKRSRSGEGEVSGLMRKVPRVSLERLDLDLTADSQPPVFKVFPGSTTEDYNLIVIERGAAAAATGQPGTAPAGTPGAPPLAGMAIVKEEETEAAIGAPPTATEGPETKPVLMALAEGPGAEGPRLASPSGSTSSGLEVVAPEGTSAPGGGPGTLDDSATICRVCQKPGDLVMCNQCEFCFHLDCHLPALQDVPGEEWSCSLCHVLPDLKEEDGSLSLDGADSTGVVAKLSPANQRKCERVLLALFCHEPCRPLHQLATDSTFSLDQPGGTLDLTLIRARLQEKLSPPYSSPQEFAQDVGRMFKQFNKLTEDKADVQSIIGLQRFFETRMNEAFGDTKFSAVLVEPPPMSLPGAGLSSQELSGGPGDGP
B2: CKAP2 (protein, UniProt Q8WWK9 1-683, looked up)
Cytoskeleton-associated …: MSTPAVPQDLQLPPSQRAQSAFKEQRRQKLKEHLLRRKTLFAYKQENEMLSSSRDQRVVTSEDQVQEGTKVLKLKTKMADKENMKRPAESKNNTVVGKHCIPLKPSNELTNSTVVIDTHKPKDSNQTPHLLLTEDDPQSQHMTLSQAFHLKNNSKKKQMTTEKQKQDANMPKKPVLGSYRGQIVQSKINSFRKPLQVKDESSAATKKLSATIPKATKPQPVNTSSVTVKSNRSSNMTATTKFVSTTSQNTQLVRPPIRSHHSNTRDTVKQGISRTSANVTIRKGPHEKELLQSKTALSSVKTSSSQGIIRNKTLSRSIASEVIARPASLSNDKLMEKSEPVDQRRHTAGKAIVDSRSAQPKETSEERKARLSEWKAGKGRVLKRPPNSVVTQHEPAGQNEKPVGSFWTTMAEEDEQRLFTEKVNNTFSECLNLINEGCPKEDILVTLNDLIKNIPDAKKLVKYWICLALIEPITSPIENIIAIYEKAILAGAQPIEEMRHTIVDILTMKSQEKANLGENMEKSCASKEEVKEVSIEDTGVDVDPEKLEMESKLHRNLLFQDCEKEQDNKTKDPTHDVKTPNTETRTSCLIKYNVSTTPYLQSVKKKVQFDGTNSAFKELKFLTPVRRSRRLQEKTSKLPDMLKDHYPCVSSLEQLTELGRETDAFVCRPNAALCRVYYEADTT
B3: TUBA1C (protein, UniProt Q9BQE3 1-449, looked up)
Tubulin alpha-1C chain: MRECISIHVGQAGVQIGNACWELYCLEHGIQPDGQMPSDKTIGGGDDSFNTFFSETGAGKHVPRAVFVDLEPTVIDEVRTGTYRQLFHPEQLITGKEDAANNYARGHYTIGKEIIDLVLDRIRKLADQCTGLQGFLVFHSFGGGTGSGFTSLLMERLSVDYGKKSKLEFSIYPAPQVSTAVVEPYNSILTTHTTLEHSDCAFMVDNEAIYDICRRNLDIERPTYTNLNRLISQIVSSITASLRFDGALNVDLTEFQTNLVPYPRIHFPLATYAPVISAEKAYHEQLTVAEITNACFEPANQMVKCDPRHGKYMACCLLYRGDVVPKDVNAAIATIKTKRTIQFVDWCPTGFKVGINYQPPTVVPGGDLAKVQRAVCMLSNTTAVAEAWARLDHKFDLMYAKRAFVHWYVGEGMEEGEFSEAREDMAALEKDYEEVGADSADGEDEGEEY
B4: NOSIP (protein, UniProt Q9Y314 1-301, looked up)
Nitric oxide …: MTRHGKNCTAGAVYTYHEKKKDTAASGYGTQNIRLSRDAVKDFDCCCLSLQPCHDPVVTPDGYLYEREAILEYILHQKKEIARQMKAYEKQRGTRREEQKELQRAASQDHVRGFLEKESAIVSRPLNPFTAKALSGTSPDDVQPGPSVGPPSKDKDKVLPSFWIPSLTPEAKATKLEKPSRTVTCPMSGKPLRMSDLTPVHFTPLDSSVDRVGLITRSERYVCAVTRDSLSNATPCAVLRPSGAVVTLECVEKLIRKDMVDPVTGDKLTDRDIIVLQRGGTGFAGSGVKLQAEKSRPVMQA

Test system: 3×MBT domain of L3MBTL1
Assay: Triple SILAC pull-down, 3xMBT/3xMBTD355N ratio (cytoplasmic, nuclear and chromatin fractions of 293T cells);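 further: proteins quantified with MaxQuant, requiring at least two unique peptides and quantification in both label directions, normalized to the mean of proteins from a digested loading control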
Type: binding, human
Details: SILAC ratio 3xMBT vs 3xMBTD355N pull-down, 293T cells; experiment with UNC0638 in heavy SILAC media; all values in log base 2

Molecule	3xMBT/D355N UNC Heavy [log base 2]
B1	1.05
B2	−1.81
B3	0.42
B4	1.54

Same assay, conditions: SILAC ratio 3xMBT vs 3xMBTD355N pull-down, 293T cells; experiment with UNC0638 in light SILAC media; all values in log base 2

Molecule	3xMBT/D355N UNC Light [log base 2]
B1	1.28
B2	−1.33
B3	1.45
B4	2.28

Target: T1, G9a and GLP
Assay: Triple SILAC pull-down after UNC0638 treatment of 293T cells, DMSO/UNC0638 ratio of protein captured by 3×MBT;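 further: mass spectrometry (Q-Exactive) SILAC quantitation, DMSO/UNC0638 ratio computed after subtracting 3×MBTD355N mutant pull-down background, only proteins with at least twofold 3×MBT over mutant signal considered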
Type: cell-based
Set-up: cells were treated for 24 hours with UNC0638 at 2.5 μM or DMSO vehicle control; endogenous in cells; host or cells: HEK 293T
Details: SILAC ratio DMSO relative to UNC0638, pull-down with 3xMBT; UNC0638 in heavy SILAC media; all values in log base 2

Molecule	Relative to UNC0638 UNC Heavy [log base 2]
B1	0.01
B2	−0.12
B3	−0.83
B4	0.03

Same assay, conditions: SILAC ratio DMSO relative to UNC0638, pull-down with 3xMBT; UNC0638 in light SILAC media; all values in log base 2

Molecule	Relative to UNC0638 UNC Light [log base 2]
B1	0.10
B2	0.05
B3	0.93
B4	−0.11

Same assay, conditions: average of UNC Light and UNC Heavy experiments; all values in log base 2

Molecule	Relative to UNC0638 Average [log base 2]
B1	0.06
B2	−0.03
B3	0.05
B4	−0.04
